Values belong to the substance of their own block, whether it stands above or below them.
Assays:
CD19 = CD19 (UniProt P15391); assay: cell-based or functional assay
[1] = target: CD19 CAR with CD34 spacer #C2 (human); assay: MACS selection of transduced Jurkat cells with bead-labelled antibody, flow cytometry of fractions
[2] = target: CD19 CAR with CD34 spacer #C3 (human); assay: as above
[3] = target: CD19 CAR with CD34 spacer #C4 (human); assay: as above
[4] = target: CD19 CAR with CD34 spacer #C5 (human); assay: as above
Sequence of CD19 CAR with CD34 spacer #C5 (human) (P28906 42-110): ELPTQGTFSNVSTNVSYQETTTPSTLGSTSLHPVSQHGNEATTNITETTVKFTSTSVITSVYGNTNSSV

[5] = target: CD19 CAR with CD34 spacer #C7 (human); assay: as above
Sequence of CD19 CAR with CD34 spacer #C7 (human) (P28906 42-220): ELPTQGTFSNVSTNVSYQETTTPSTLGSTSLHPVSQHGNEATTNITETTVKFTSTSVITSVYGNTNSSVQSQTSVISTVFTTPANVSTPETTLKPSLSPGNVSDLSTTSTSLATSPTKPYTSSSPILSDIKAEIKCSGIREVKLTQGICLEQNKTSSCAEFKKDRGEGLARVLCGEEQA

[6] = target: CD19 CAR with NGFR/CD271 spacer #N3; assay: as above
Sequence of CD19 CAR with NGFR/CD271 spacer #N3 (P08138 108-227): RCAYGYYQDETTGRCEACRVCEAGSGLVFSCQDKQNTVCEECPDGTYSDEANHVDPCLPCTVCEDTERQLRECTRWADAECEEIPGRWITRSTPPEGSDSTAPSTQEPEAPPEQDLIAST

[7] = target: CD19 CAR with NGFR/CD271 spacer #N4; assay: as above
Sequence of CD19 CAR with NGFR/CD271 spacer #N4 (P08138 66-227): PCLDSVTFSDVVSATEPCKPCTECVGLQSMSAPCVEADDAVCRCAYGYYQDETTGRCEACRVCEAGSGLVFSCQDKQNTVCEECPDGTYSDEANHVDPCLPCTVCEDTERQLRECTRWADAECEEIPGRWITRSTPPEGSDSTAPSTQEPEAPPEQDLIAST

Sequence of CD19 CAR with CD34 spacer #C2 (human) (P28906 32-63): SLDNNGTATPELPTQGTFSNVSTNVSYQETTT
Sequence of CD19 CAR with CD34 spacer #C3 (human) (P28906 42-90): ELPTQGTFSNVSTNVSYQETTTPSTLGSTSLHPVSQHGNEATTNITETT
Sequence of CD19 CAR with CD34 spacer #C4 (human) (P28906 32-90): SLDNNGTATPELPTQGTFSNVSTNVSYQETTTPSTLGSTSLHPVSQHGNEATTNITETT
Sequence of UniProt P15391 (P15391 20-556 limits assumed): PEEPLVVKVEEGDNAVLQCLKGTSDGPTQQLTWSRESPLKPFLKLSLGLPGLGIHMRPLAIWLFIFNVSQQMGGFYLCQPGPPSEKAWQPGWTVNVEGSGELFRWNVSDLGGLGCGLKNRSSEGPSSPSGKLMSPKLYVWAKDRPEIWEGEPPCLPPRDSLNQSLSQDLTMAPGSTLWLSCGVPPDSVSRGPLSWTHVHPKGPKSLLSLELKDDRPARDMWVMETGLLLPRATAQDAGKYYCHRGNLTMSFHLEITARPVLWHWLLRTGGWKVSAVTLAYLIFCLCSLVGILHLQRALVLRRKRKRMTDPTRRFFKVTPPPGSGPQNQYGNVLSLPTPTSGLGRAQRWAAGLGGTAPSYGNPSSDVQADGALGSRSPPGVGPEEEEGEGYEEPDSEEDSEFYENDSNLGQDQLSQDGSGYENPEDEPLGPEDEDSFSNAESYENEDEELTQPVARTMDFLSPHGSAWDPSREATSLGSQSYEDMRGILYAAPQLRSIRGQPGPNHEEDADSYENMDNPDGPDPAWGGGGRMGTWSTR

Substance: CD19 CAR with the IgG4 CH2CH3 as spacer domain (from UniProt P01861 99-327)
killing of REH cells at 0.1:1 effector to target cell ratio (CD19): 48.9%

percent positive cells before MACS [1]: 68.7%
percent positive cells in flow through [1]: 68.1%
percent positive cells before MACS [2]: 61.6%
percent positive cells in flow through [2]: 47.6%
percent positive cells before MACS [3]: 64.3%
percent positive cells in flow through [3]: 47%
percent positive cells before MACS [4]: 65.5%
percent positive cells in flow through [4]: 41.1%
percent positive cells before MACS [5]: 78.4%
percent positive cells in flow through [5]: 67.1%
Substance: CD34 monoclonal antibody QBend10

percent positive cells before MACS [6]: 60.1%
percent positive cells in flow through [6]: 57.2%
percent positive cells before MACS [7]: 51.4%
percent positive cells in flow through [7]: 49.7%
Substance: CD271 monoclonal antibody ME20.4

— patent publication US20180094044A1
